Sequences and labels used below:
B1: mouse: feline 11E12 chimera (antibody)
heavy: QVQLQQSGAELVKPGASVKLSCKASGYTFKYYDINWVRQRPEQGLEWIGWIFPGDGGTKYNETFKGKATLTTDKSSSTAYMQLSRLTSEDSAVYFCARGGTSVIRDAMDYWGQGTSVTVSSASTTAPSVFPLAPSCGTTSGATVALACLVLGYFPEPVTVSWNSGALTSGVHTFPAVLQASGLYSLSSMVTVPSSRWLSDTFTCNVAHPPSNTKVDKTVRKTDHPPGPKPCDCPKCPPPEAAGAPSIFIFPPKPKDTLSISRTPEVTCLVVDLGPDDSDVQITWFVDNTQVYTAKTSPREEQFNSTYRVVSVLPILHQDWLKGKEFKCKVNSKSLPSPIERTISKAKGQPHEPQVYVLPPAQEELSRNKVSVTCLIKSFHPPDIAVEWEITGQPEPENNYRTTPPQLDSDGTYFVYSKLSVDRSHWQRGNTYTCSVSHEALHSHHTQKSLTQSPGK
light: DIVLTQSPASLAVSLGQRATISCRASESVDNYGISFMHWYQQKPGQPPKLLIYRASNLESGIPARFSGSGSRTDFTLTINPVETDDVATYYCQQSNKDPLTFGAGTKLELKRSDAQPSVFLFQPSLDELHTGSASIVCILNDFYPKEVNVKWKVDGVVQNKGIQESTTEQNSKDSTYSLSSTLTMSSTEYQSHEKFSCEVTHKSLASTLVKSFQRSECQRE
B2: ZTS-927 (antibody)
heavy: QVLLVQSGAEVRTPGASVKIFCKASGYSFTSYTIHWLRQAPAQGLEWMGNINPTSGYTENNQRFKDRLTLTADTSTNTAYMELSSLRSADTAMYYCARWGFKYDGEWSFDVWGAGTTVTVSSASTTAPSVFPLAPSCGTTSGATVALACLVLGYFPEPVTVSWNSGALTSGVHTFPAVLQASGLYSLSSMVTVPSSRWLSDTFTCNVAHPPSNTKVDKTVRKTDHPPGPKPCDCPKCPPPEMLGGPSIFIFPPKPKDTLSISRTPEVTCLVVDLGPDDSDVQITWFVDNTQVYTAKTSPREEQFNSTYRVVSVLPILHQDWLKGKEFKCKVNSKSLPSPIERTISKAKGQPHEPQVYVLPPAQEELSRNKVSVTCLIKSFHPPDIAVEWEITGQPEPENNYRTTPPQLDSDGTYFVYSKLSVDRSHWQRGNTYTCSVSHEALHSHHTQKSLTQSPGK
light: EIQMTQSPSSLSASPGDRVTITCRASQGISIWLSWYQQKPGNIPKVLINKASNLHIGVPSRFSGSGSGTDFTLTISSLEPEDAATYYCLQSQTYPLTFGGGTKLEIKRSDAQPSVFLFQPSLDELHTGSASIVCILNDFYPKEVNVKWKVDGVVQNKGIQESTTEQNSKDSTYSLSSTLTMSSTEYQSHEKFSCEVTHKSLASTLVKSFQRSECQRE
B3: mouse: canine 11E12 chimera (antibody)
heavy: QVQLQQSGAELVKPGASVKLSCKASGYTFKYYDINWVRQRPEQGLEWIGWIFPGDGGTKYNETFKGKATLTTDKSSSTAYMQLSRLTSEDSAVYFCARGGTSVIRDAMDYWGQGTSVTVSSASTTAPSVFPLAPSCGSTSGSTVALACLVSGYFPEPVTVSWNSGSLTSGVHTFPSVLQSSGLYSLSSMVTVPSSRWPSETFTCNVAHPASKTKVDKPVPKRENGRVPRPPDCPKCPAPEMLGGPSVFIFPPKPKDTLLIARTPEVTCVVVDLDPEDPEVQISWFVDGKQMQTAKTQPREEQFNGTYRVVSVLPIGHQDWLKGKQFTCKVNNKALPSPIERTISKARGQAHQPSVYVLPPSREELSKNTVSLTCLIKDFFPPDIDVEWQSNGQQEPESKYRTTPPQLDEDGSYFLYSKLSVDKSRWQRGDTFICAVMHEALHNHYTQESLSHSPGK
light: DIVLTQSPASLAVSLGQRATISCRASESVDNYGISFMHWYQQKPGQPPKLLIYRASNLESGIPARFSGSGSRTDFTLTINPVETDDVATYYCQQSNKDPLTFGAGTKLELKRNDAQPAVYLFQPSPDQLHTGSASVVCLLNSFYPKDINVKWKVDGVIQDTGIQESVTEQDKDSTYSLSSTLTMSSTEYLSHELYSCEITHKSLPSTLIKSFQRSEC
B4: Feline 11E12 1.2 (antibody, V domains shown)
VH: QVLLVQSGAEVKKPGASVKIFCKASGYSFTYYDINWLRQAPEQGLEWMGWIFPGDGGTKYNETFKGRLTLTADTSTNTVYMELSSLRSADTAMYYCARGGTSVIRDAMDYWGQGALVTVSS
VL: EVVLTQSSAFLSRTLKEKATITCRASESVDNYGISFMHWYQQKPNQAPKLLVKRASNLESGAPSRFSGSGSGTDFTLTISSPEPEDAATYYCQQSNKDPLTFGQGT
B5: Feline 11E12 1.1 FW2 (antibody, V domains shown)
VH: B4 VH
VL: EIQMTQSPSSLSASPGDRVTITCRASESVDNYGISFMHWYQQKPGQPPKLLIYRASNLESGVPSRFSGSGSGTDFTLTISSLEPEDAATYYCQQSNKDPLTFGQGT
B6: ZIL9 (antibody, V domains shown)
VH: EVQLVESGGDLVKPPGSLRLSCVASGFTFSSYDMTWVRQAPGKGLQWVADVNSGGTGTAYAVAVKGRFTISRDNAKKTLYLQMNSLRAEDTAVYYCAKLGVRDGLSVWGQGTLVTVSS
VL: SSVLTQPPSVSVSLGQTATISCSGESLNEYYTQWFQQKAGQAPVLVIYRDTERPSGIPDRFSGSSSGNTHTLTISGARAEDEADYYCESAVDTGTLVFGGGTHLAVLR
B7: ZIL1 (antibody, V domains shown)
VH: EVQLVESGGDLVKPGGSLRLSCVASGFTFSSYGMSWVRQAPGKGLQWVAHINSGGSSTYYADAVKGRFTISRDNAKNTLYLQMNSLRAEDTAVYYCVEVYTTLAAFWTDNFDYWGQGTLVTVSS
VL: QSVLTQPTSVSGSLGQRVTISCSGSTNNIGILAATWYQQLPGKAPKVLVYSDGNRPSGVPDRFSGSKSGNSATLTITGLQAEDEADYYCQSFDTTLDAYVFGSGTQLTVLR
B8: ZIL94 (antibody, V domains shown)
VH: EVQLVDSGGDLVKPGGSLRLSCVASGFTFSTYFMSWVRQAPGRGLQWVALISSDGSGTYYADAVKGRFTISRDNAKNTLYLQMNSLRAEDTAMYYCAIFWRAFNDWGQGTLVTVSS
VL: QTVVIQEPSLSVSPGGTVTLTCGLNSGSVSTSNYPGWYQQTRGRTPRTIIYDTGSRPSGVPNRFSGSISGNKAALTITGAQPEDEADYYCSLYTDSDILVFGGGTHLTVLR
B9: ZIL69 (antibody, V domains shown)
VH: EVQLVESGGDLVKPAGSLRLSCVASGFTFSSYAMKWVRQAPGKGLQWVATINNDGTRTGYADAVRGRFTISKDNAKNTLYLQMDSLRADDTAVYYCTKGNAESGCTGDHCPPYWGQGTLVTVSS
VL: SSVLTQPPSVSVSLGQTATISCSGESLNKYYAQWFQQKAGQAPVLVIYKDTERPSGIPDRFSGSSAGNTHTLTISGARAEDEADYYCESAVSSETNVFGSGTQLTVLR
B10: Feline 15H05 2.1 (antibody, V domains shown)
VH: QVLLVQSGAEVRTPGASVKIFCKASGYGFTSYTIHWVRQSPAQGLEWMGNINPTSGYTENNQRFKDRLTLTADTSTNTAYMELSSLRSADTAMYYCARWGFKYDGEWSFDVWGAGTTVTVSS
VL: EIQMTQSPSSLSASPGDRVTITCRASQGISIWLSWYQQKPGKVPKLLIYKASNLHIGVPSRFSGSGSGTDFTLTISSLEPEDAATYYCLQSQTYPLTFGGGTKLEIK
B11: Feline 15H05 3.1 (antibody, V domains shown)
VH: B10 VH with T13K, G28S, V37L, S40A, A42E
VL: B10 VL
B12: Feline 15H05 3.2 (antibody, V domains shown)
VH: B10 VH with T13K, G28S, V37L, S40A, A42E
VL: EITMTQSPGSLAGSPGQQVTMNCRASQGISIWLSWYQQKPGQHPKLLIYKASNLHIGVPDRFSGSGSGTDFTLTISNLQAEDVASYYCLQSQTYPLTFGGGTKLEIK
B13: Feline 15H05 2.2 (antibody, V domains shown)
VH: B10 VH
VL: B12 VL

The text below walks through data of patent publication US20190282704A1.

Changes are numbered by the printed parent chain.
For Binding (ELISA OD) in this document: test concentration or dose not given here.

The first assay concerns the target wildtype feline IL-31 (Feline_IL31_wildtype) (feline).
Assay: not given
Molecule B1 displayed an IC50, inhibition of feline IL-31-induced STAT3 phosphorylation, canine DH82 cells of 4.4 µg/mL and an IC50, inhibition of feline IL-31-induced STAT3 phosphorylation, feline FCWF4 cells of 3.45 µg/mL.

Turning to B2, the IC50, inhibition of feline IL-31-induced STAT3 phosphorylation, canine DH82 cells came out at 1.57 µg/mL and the IC50, inhibition of feline IL-31-induced STAT3 phosphorylation, feline FCWF4 cells was 5.26 µg/mL.

As to B3, the IC50, inhibition of feline IL-31-induced STAT3 phosphorylation, feline FCWF4 cells was determined as 1.15 µg/mL.

With B4, the IC50, inhibition of feline IL-31-induced STAT3 phosphorylation, canine DH82 cells was > 100 µg/mL and the IC50, inhibition of feline IL-31-induced STAT3 phosphorylation, feline FCWF4 cells is > 100 µg/mL.

B5 displayed an IC50, inhibition of feline IL-31-induced STAT3 phosphorylation, canine DH82 cells of 5.66 µg/mL and an IC50, inhibition of feline IL-31-induced STAT3 phosphorylation, feline FCWF4 cells of 4.38 µg/mL.

For the next assay, the target named is feline IL-31 15H05 mutant (Feline_IL31_15H05 mutant) (feline). Nature of the assay: indirect ELISA, coated IL-31. (ELISA stands for enzyme-linked immunosorbent assay.)
Sequence of feline IL-31 15H05 mutant (Feline_IL31_15H05 mutant) (feline) (chain, as listed by the source mutant limits assumed, form in doubt): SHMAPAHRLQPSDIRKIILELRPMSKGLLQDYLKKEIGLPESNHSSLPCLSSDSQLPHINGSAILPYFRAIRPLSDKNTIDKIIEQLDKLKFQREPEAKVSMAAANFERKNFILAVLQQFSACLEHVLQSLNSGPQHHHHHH
Molecule B6 showed a Binding (ELISA OD) of 0.73 OD.

For B7, the Binding (ELISA OD) is 0.92 OD.

The molecule B8 had a Binding (ELISA OD) of 1.3 OD.

Turning to B9, the Binding (ELISA OD) worked out at 0.92 OD.

The target in a further assay is wildtype feline IL-31 (Feline_IL31_wildtype) (feline). Briefly: indirect ELISA, coated IL-31. Also: test concentration or dose not given here.
Sequence of wildtype feline IL-31 (Feline_IL31_wildtype) (feline) (chain, as listed by the source limits assumed, form in doubt): as the sequence (chain, as listed by the source mutant limits assumed, form in doubt) above, with A103P, A105D counted along it
B6: the Binding (ELISA OD) is 1.8 OD.

As for B7, the Binding (ELISA OD) stood at 1.89 OD.

Molecule B8 had a Binding (ELISA OD) of 1.67 OD.

With B9, the Binding (ELISA OD) came to 1.48 OD.

The target in a further assay is canine IL-31 (Canine_IL31) (canine). Briefly: SPR (Biacore), immobilised IL-31, 1:1 fit.
Sequence of canine IL-31 (Canine_IL31) (canine) (chain, as listed by the source limits assumed, form in doubt): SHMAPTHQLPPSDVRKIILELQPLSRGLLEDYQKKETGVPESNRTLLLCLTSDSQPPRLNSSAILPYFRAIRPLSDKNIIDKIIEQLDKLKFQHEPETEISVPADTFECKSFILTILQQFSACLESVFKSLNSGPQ
In general, Kd refers to the constant that tells how readily two partners part at equilibrium. The koff is the first-order rate constant of dissociation. Low readings indicate slow dissociation, high ones fast dissociation. For orientation: kon means the second-order rate constant of association. A lower kon goes with slower complex formation. In turn, B1 gave a dissociation constant (Kd) of 0.000127 nM, a koff of 8.7e-08 s⁻¹ and a kon of 684000 M⁻¹ s⁻¹.

As for B10, the Kd was found to be 1.65 nM, the koff was 0.000866 s⁻¹ and the kon amounted to 525000 M⁻¹ s⁻¹.

For the molecule B11, the Kd came out at 0.795 nM, the off-rate (koff) came to 2.11e-05 s⁻¹ and the kon worked out at 26500 M⁻¹ s⁻¹.

B12 returned a Kd of 0.204 nM, a koff of 6.04e-06 s⁻¹ and a kon of 29700 M⁻¹ s⁻¹.

Take B13: the Kd worked out at 0.393 nM, the koff is 1.09e-05 s⁻¹ and the on-rate constant (kon) came to 27700 M⁻¹ s⁻¹.

As to B3, the Kd was 0.000826 nM, the koff came out at 6.55e-07 s⁻¹ and the kon was 793000 M⁻¹ s⁻¹.

Consider B5, for which the Kd was found to be 7.02 nM, the koff turned out to be 0.000318 s⁻¹ and the on-rate constant (kon) came out at 45200 M⁻¹ s⁻¹.

For a further assay, the target named is wildtype feline IL-31 (Feline_IL31_wildtype) (feline). Nature of the assay: SPR (Biacore), immobilised IL-31, 1:1 fit. (In general: SPR reads the build-up and loss of mass on a sensor chip optically.)
As to B1, the Kd is 0.13 nM, the koff is 5.06e-05 s⁻¹ and the kon came to 388000 M⁻¹ s⁻¹.

In turn, B10 displayed a Kd of 22.3 nM, a koff of 0.00465 s⁻¹ and a kon of 208000 M⁻¹ s⁻¹.

In turn, B11 displayed a Kd of 37.1 nM, a koff of 0.00166 s⁻¹ and a kon of 44700 M⁻¹ s⁻¹.

B12 returned an equilibrium dissociation constant (Kd) of 12.6 nM, a koff of 0.00166 s⁻¹ and a kon of 132000 M⁻¹ s⁻¹.

The molecule B13 displayed a Kd of 2.15 nM, a dissociation rate constant (koff) of 0.00195 s⁻¹ and a kon of 905000 M⁻¹ s⁻¹.

On to B2, for which the Kd was 0.614 nM, the koff came out at 2.3e-05 s⁻¹ and the kon is 37400 M⁻¹ s⁻¹.

B3 yielded a Kd of 0.248 nM, a koff of 0.000108 s⁻¹ and an on-rate constant (kon) of 437000 M⁻¹ s⁻¹.

The molecule B5 came in with an equilibrium dissociation constant (Kd) of 0.75 nM, a koff of 0.000639 s⁻¹ and a kon of 852000 M⁻¹ s⁻¹.
